According to PMC3549664:

B1: keratin 18 (K18, hK18): K18 S30/31/49A (Gly−) (protein)
parent chain: MSFTTRSTFSTNYRSLGSVQAPSYGARPVSSAASVYAGAGGSGSRISVSRSTSFRGGMGSGGLATGIAGGLAGMGGIQNEKETMQSLNDRLASYLDRVRSLETENRRLESKIREHLEKKGPQVRDWSHYFKIIEDLRAQIFANTVDNARIVLQIDNARLAADDFRVKYETELAMRQSVENDIHGLRKVIDDTNITRLQLETEIEALKEELLFMKKNHEEEVKGLQAQIASSGLTVEVDAPKSQDLAKIMADIRAQYDELARKNREELDKYWSQQIEESTTVVTTQSAEVGAAETTLTELRRTVQSLEIDLDSMRNLKASLENSLREVEARYALQMEQLNGILLHLESELAQTRAEGQRQAQEYEALLNIKVKLEAEIATYRRLLEDGEDFNLGDALDSSNSMQTIQKTTTRRIVDGKVVSETNDTKVLRH
B2: keratin 18 (K18, hK18): K18 Gly− (protein)
parent chain: B1 parent chain

Legend:
[1] = survival after PUGNAc then Fas antibody; details: glycan lost; control: FVB/n and hK18 WT mice
[2] = Coomassie of high salt extract, hK18 blot; details: glycan lost; control: hK18-WT mouse line
[3] = immunofluorescence of liver and pancreas, basal; details: glycan lost; control: hK18 WT mice
[4] = gross appearance, histology, Oil red O, PAS, insulin stain; details: glycan lost; control: hK18 WT mice
anti-K18 pS53 blot = details: glycan lost; control: K18 WT transfectants

Row | Protein | other: mouse lethality after PUGNAc/Fas [1] | expression_or_secretion [2] | other: keratin filament organisation [3] | other: tissue injury after STZ [4] | other: K18 S34/S53 phosphorylation (anti-K18 pS53 blot)
1 | B1 | increases | no change | no change | increases | –
2 | B2 | – | – | – | – | no change
